Assay results taken from article PMC10393071 (2023).

T1: BMPR-1A/BMPR-1B (aortic SMC) (Homo sapiens, UniProt P36894)
T1 chain 1: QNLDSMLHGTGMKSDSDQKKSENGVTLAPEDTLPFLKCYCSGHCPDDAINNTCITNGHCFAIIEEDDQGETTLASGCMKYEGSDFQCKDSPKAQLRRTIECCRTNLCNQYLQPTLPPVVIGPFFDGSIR
T1 chain 2: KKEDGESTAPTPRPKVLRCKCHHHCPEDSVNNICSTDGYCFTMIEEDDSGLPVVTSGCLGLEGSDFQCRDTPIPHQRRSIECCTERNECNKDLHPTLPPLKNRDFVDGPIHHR

T2: BMPR-1A/BMPR-1B (Mus musculus, UniProt P36895)
T2 chain 1: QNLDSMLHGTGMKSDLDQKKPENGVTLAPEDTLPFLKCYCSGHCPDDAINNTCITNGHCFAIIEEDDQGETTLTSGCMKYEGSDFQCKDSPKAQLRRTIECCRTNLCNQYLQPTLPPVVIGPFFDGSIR
T2 chain 2: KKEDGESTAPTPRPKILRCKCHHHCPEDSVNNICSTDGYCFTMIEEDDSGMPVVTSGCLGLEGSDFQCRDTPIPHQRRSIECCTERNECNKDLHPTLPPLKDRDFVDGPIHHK

T3: BMPR-1B (Mus musculus, UniProt P36898)
T3 chain: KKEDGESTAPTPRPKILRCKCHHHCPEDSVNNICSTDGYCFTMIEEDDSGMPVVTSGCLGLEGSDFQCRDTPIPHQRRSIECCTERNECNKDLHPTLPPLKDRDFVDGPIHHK

T4: BMPR-1A (Mus musculus, UniProt P36895)
T4 chain: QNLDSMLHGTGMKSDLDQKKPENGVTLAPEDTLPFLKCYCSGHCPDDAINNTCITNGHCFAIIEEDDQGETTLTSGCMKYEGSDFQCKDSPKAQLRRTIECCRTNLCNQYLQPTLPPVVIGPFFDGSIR

T5: BMPR-2 (Mus musculus, UniProt O35607)
T5 chain: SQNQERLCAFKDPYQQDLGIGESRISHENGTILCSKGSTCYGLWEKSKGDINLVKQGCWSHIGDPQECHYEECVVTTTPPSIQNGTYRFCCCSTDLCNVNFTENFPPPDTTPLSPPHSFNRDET

T6: BMPR-1A (aortic SMC, BMPR-1B siRNA) (Mus musculus, UniProt P36895)
T6 chain: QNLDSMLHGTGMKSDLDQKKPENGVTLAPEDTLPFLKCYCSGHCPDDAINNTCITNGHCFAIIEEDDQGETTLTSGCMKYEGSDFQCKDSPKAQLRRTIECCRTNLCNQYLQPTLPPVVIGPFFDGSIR

T7: BMPR-1A/BMPR-1B (aortic SMC) (Mus musculus, UniProt P36895)
T7 chain 1: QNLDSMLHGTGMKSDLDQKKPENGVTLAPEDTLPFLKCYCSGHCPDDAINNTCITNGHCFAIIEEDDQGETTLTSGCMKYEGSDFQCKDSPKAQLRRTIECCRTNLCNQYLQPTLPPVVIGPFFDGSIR
T7 chain 2: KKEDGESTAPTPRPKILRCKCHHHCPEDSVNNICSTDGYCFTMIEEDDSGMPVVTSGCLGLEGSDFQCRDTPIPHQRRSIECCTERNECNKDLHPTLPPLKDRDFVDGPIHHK

T8: BMPR-1B (aortic SMC, BMPR-1A siRNA) (Mus musculus, UniProt P36898)
T8 chain: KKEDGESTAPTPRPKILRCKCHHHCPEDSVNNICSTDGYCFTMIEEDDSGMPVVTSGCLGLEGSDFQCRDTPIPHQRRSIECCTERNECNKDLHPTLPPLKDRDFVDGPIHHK


Key:
[1] = target: T1, BMPR-1A/BMPR-1B (aortic SMC); assay: FITC-ligand cell membrane binding, Scatchard
BMPR-1A/BMPR-1B = target: T2, BMPR-1A/BMPR-1B; assay: FITC-ligand binding to transfected 293T, Scatchard
BMPR-1B = target: T3, BMPR-1B; assay: FITC-ligand binding to transfected 293T, Scatchard
BMPR-1A = target: T4, BMPR-1A; assay: FITC-ligand binding to transfected 293T, Scatchard
BMPR-2 = target: T5, BMPR-2; assay: FITC-ligand binding to transfected 293T, Scatchard
[2] = target: T6, BMPR-1A (aortic SMC, BMPR-1B siRNA); assay: FITC-ligand cell membrane binding, Scatchard
[3] = target: T7, BMPR-1A/BMPR-1B (aortic SMC); assay: FITC-ligand cell membrane binding, Scatchard
[4] = target: T8, BMPR-1B (aortic SMC, BMPR-1A siRNA); assay: FITC-ligand cell membrane binding, Scatchard

Kd [1] [nM]	Kd (BMPR-1A/BMPR-1B) [nM]	Kd (BMPR-1B) [nM]	Kd (BMPR-1A) [nM]	Kd (BMPR-2) [nM]	Kd [2] [nM]	Kd [3] [nM]	Kd [4] [nM]	Binder
14.9								ECP (protein) RPPQFTRAQWFAIQHISLNPPRCTIAMRAINNYRWRCKNQNTFLRTTFANVVNVCGNQSIRCPHNRTLNNCHRSRFRVPLLHCDLINPGAQNISNCTYADRPGRRFYVVACDNRDPRDSPRYPVVPVHLDTTI
	15.5	9.45	10.6	6.09	9.14	15.8	11.1	mEar1 (protein) LGQTPSQKFAIQHINNNTNLQCNVEMMRINRARRTCKGLNTFLHTSFANAVGVCGNPSGLCSDKRSQNCHNSSSRVHITVCNITSRATNYTQCRYQSRRSLEYYTVACDPRTPQDSPMYPVVPVHLDGTF
11.6								EDN (protein) KPPQFTWAQWFETQHINMTSQQCTNAMQVINNYQRRCKNQNTFLLTTFANVVNVCGNPNMTCPSNKTRKNCHHSGSQVPLIHCNLTTPSPQNISNCRYAQTPANMFYIVACDNRDQRRDPPQYPVVPVHLDRII
